Test results as given in publication PMC11404848, “Stenotrophomonas maltophilia uses a c-di-GMP module to sense the mammalian body temperature during infection” (PLOS Pathogens, 2024).

How the values were obtained:
[1] = target: BtsD^ΔSP (Stenotrophomonas maltophilia CGMCC 1.1788); experiment: native gel or EMSA; purified BtsD^ΔSP in 2 mM HEPES, 20 mM K2HPO4, pH 7.9, 2 h at 28°C or 37°C, directly or after a gradual 30-min upshift from 0°C; native gel; fewer tetramers at 37°C
[2] = tested on: T1, BtsR (Stenotrophomonas maltophilia CGMCC 1.1788), ORF:ddddda88; experiment: EMSA
T1 sequence: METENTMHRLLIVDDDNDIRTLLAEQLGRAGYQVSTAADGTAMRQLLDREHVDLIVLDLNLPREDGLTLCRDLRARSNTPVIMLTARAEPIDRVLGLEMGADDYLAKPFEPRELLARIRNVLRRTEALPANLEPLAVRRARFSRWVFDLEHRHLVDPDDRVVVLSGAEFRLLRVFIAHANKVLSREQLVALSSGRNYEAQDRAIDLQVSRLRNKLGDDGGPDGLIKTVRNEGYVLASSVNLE

Substance	stoichiometry N [1]	binding [2]
BtsD^ΔSP (enzyme)	4	–
CCGGTGAGGTTCGAAAAGCGGGTTCTGGTAGTGCCGGCCGCTGGCCGGCAACCCGACCTTCGCTGATTGCCGGCCAGCGGCCGGCACTACCATGCCGCTCTTGCTCCCTTTCACGCATCCCCCCCCCCCGCCCCTTGACCTCAACCAATGTTGAGGTGCGATAACAGTCTCCCCACGGCCAGCCCTCTGGCCTTCCCCACGGAGATTGCTTCA (double strand) [sod1-3 promoter probe]	–	binds
